Measurements: patent US20240024501A1 (BONUM THERAPEUTICS, published 2024)

What was measured:
[1] = target: PDL1-hFc-Avi (Acro Biosystems, PDL-H82F2) (UniProt Q9NZQ7 19-238, biotinylated); assay: ELISA: scFv captured at saturating level on anti-V5, titrated PDL1-hFc-Avi, streptavidin-HRP
AF33 = target: T1, AF33; assay: ELISA: scFv captured at saturating level on anti-V5, titrated biotinylated AF33 (IL-15 fusion), streptavidin-HRP
T1 construct: also called IL-15; IL15

AF3099 = target: T2, AF3099; assay: ELISA as in Example 9: dilution series of the IFN-scFv complex captured on anti-V5, probed with IFNAR2-Biotin with or without PD-L1, streptavidin-HRP
T2 construct: IFNα-linker-DBA scFv variant complex

Binder | binding result [1] | binding result (AF33) | binding result (AF3099)
AF636 (scFv) scFv: MSTSTEQKLISEEDLQVQLVQSGAEVKKPGASVKVSCKASGYSFTSYYLHWVRQAPGQGLEWMGRISPRSGGTKNAQNFQGRVTMTRDTSTSTVYMELSSLRSEDTAVYYCVRSLFPTIFGVEVAFDIWGQGTLVTVSSASGGGGSGGGGSGGGGSHASDIQMTQSPSSLSASVGDRVTITCRASQSISSWLAWYQQKPGKAPKLLIYYASSLQSGVPSRFSGSGSGTDFTLTISSLQPEDFATYYCQQGYQYPYTFGQGTKLEIKGKPIPNPLLGLDST | binds | binds | –
IFNAR2-Biotin (receptor, biotinylated, also called biotinylated interferon receptor (IFNAR2)) ISYDSPDYTDESCTFKISLRNFRSILSWELKNHSIVPTHYTLLYTIMSKPEDLKVVKNCANTTRSFCDLTDEWRSTHEAYVTVLEGFSGNTTLFSCSHNFWLAIDMSFEPPEFEIVGFTNHINVMVKFPSIVEEELQFDLSLVIEEQSEGIVKKHKPEIKGNMSGNFTYIIDKLIPNTNYCVSVYLEHSDEQAVIKSPLKCTLLPPGQESESAESAK | – | – | no binding (tested: 0.5 % IFN-scFv)
